Test results published in IntAct's records for PubMed 12732728.

B1: RNA polymerase II subunit A C-terminal domain phosphatase (Homo sapiens), Q9Y5B0 (parent)
chain: MEVPAAGRVPAEGAPTAAVAEVRCPGPAPLRLLEWRVAAGAAVRIGSVLAVFEAAASAQSSGASQSRVASGGCVRPARPERRLRSERAGVVRELCAQPGQVVAPGAVLVRLEGCSHPVVMKGLCAECGQDLTQLQSKNGKQQVPLSTATVSMVHSVPELMVSSEQAEQLGREDQQRLHRNRKLVLMVDLDQTLIHTTEQHCQQMSNKGIFHFQLGRGEPMLHTRLRPHCKDFLEKIAKLYELHVFTFGSRLYAHTIAGFLDPEKKLFSHRILSRDECIDPFSKTGNLRNLFPCGDSMVCIIDDREDVWKFAPNLITVKKYVYFQGTGDMNAPPGSRESQTRKKVNHSRGTEVSEPSPPVRDPEGVTQAPGVEPSNGLEKPARELNGSEAATPRDSPRPGKPDERDIWPPAQAPTSSQELAGAPEPQGSCAQGGRVAPGQRPAQGATGTDLDFDLSSDSESSSESEGTKSSSSASDGESEGKRGRQKPKAAPEGAGALAQGSSLEPGRPAAPSLPGEAEPGAHAPDKEPELGGQEEGERDGLCGLGNGCADRKEAETESQNSELSGVTAGESLDQSMEEEEEEDTDEDDHLIYLEEILVRVHTDYYAKYDRYLNKEIEEAPDIRKIVPELKSKVLADVAIIFSGLHPTNFPIEKTREHYHATALGAKILTRLVLSPDAPDRATHLIAARAGTEKVLQAQECGHLHVVNPDWLWSCLERWDKVEEQLFPLRDDHTKAQRENSPAAFPDREGVPPTALFHPMPVLPKAQPGPEVRIYDSNTGKLIRTGARGPPAPSSSLPIRQEPSSFRAVPPPQPQMFGEELPDAQDGEQPGPSRRKRQPSMSETMPLYTLCKEDLESMDKEVDDILGEGSDDSDSEKRRPEEQEEEPQPRKPGTRRERTLGAPASSERSAAGGRGPRGHKRKLNEEDAASESSRESSNEDEGSSSEADEMAKALEAELNDLM

Variants of: B1
Details: with t2fa_human GTF2F1, P35269
Chain of t2fa_human GTF2F1, P35269 (P35269 whole entry): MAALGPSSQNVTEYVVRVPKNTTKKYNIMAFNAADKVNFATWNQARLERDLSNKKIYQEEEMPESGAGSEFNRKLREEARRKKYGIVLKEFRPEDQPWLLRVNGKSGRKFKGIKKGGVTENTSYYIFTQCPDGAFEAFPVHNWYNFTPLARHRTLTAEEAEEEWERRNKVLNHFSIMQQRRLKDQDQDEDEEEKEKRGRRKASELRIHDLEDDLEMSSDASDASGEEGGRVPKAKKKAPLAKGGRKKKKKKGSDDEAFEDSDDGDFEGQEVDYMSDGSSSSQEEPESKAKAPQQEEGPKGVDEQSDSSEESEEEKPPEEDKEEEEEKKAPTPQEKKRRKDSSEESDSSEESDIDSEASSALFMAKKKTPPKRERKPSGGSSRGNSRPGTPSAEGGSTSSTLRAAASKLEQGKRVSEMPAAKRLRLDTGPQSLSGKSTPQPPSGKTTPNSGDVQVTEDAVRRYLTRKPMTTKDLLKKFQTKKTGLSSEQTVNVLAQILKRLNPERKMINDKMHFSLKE

Row | Variant | effect of a mutation on the interaction
1 | E956A;L957A | decreasing interaction
